The target of experiment [1] is Sap Domain 2 (D2, residues 296-384), isolated recombinant domain (Bacillus anthracis, UniProt P49051 296-384). Kind of experiment: dot blot.
Experiment [2] addresses Sap Domain 1 (D1, residues 216-295), isolated recombinant domain (Bacillus anthracis, UniProt P49051 216-295). Description: dot blot.
For experiment [3], the target named is T1, B. anthracis Surface array protein (Sap), native S-Layer on B. anthracis 34F2 cells (Bacillus anthracis, UniProt P49051 30-814).
T1 sequence: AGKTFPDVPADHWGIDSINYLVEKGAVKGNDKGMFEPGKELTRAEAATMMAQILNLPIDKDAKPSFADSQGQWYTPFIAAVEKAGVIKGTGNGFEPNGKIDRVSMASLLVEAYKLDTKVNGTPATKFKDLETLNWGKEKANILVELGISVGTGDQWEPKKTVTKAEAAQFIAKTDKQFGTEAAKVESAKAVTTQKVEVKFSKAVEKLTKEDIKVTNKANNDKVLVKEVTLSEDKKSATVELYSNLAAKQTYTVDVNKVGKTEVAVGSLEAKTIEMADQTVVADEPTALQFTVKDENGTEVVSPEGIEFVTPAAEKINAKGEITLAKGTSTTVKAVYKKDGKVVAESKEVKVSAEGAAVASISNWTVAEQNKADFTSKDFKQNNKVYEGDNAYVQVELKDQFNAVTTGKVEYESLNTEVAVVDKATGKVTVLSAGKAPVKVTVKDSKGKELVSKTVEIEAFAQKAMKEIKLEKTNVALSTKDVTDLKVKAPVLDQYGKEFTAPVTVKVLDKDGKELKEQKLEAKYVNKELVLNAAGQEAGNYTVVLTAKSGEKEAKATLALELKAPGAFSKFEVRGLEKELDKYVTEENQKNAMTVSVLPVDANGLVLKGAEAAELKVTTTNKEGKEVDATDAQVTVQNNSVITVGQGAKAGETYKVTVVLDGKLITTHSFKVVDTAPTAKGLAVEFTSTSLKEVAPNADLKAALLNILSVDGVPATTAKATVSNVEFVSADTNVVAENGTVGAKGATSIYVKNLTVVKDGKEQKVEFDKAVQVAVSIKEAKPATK
Description: fluorescence microscopy of B. anthracis 34F2 cells with DyLight 650-labelled Nb.

Data on 7 molecules can be found in patent US20200255501A1 (VIB VZW, published 2020).

Changes are numbered by the printed parent chain.

B1: anti-Sap Nanobody707 (VHH)
VHH: QVQLVESGGGLVQAGGSLRLSCAASGSIFRINAMGWYRQASGKQRELVAAITSGGNTNYADSVKGRFTISRDNAKNTVYLQMNSLKPEDTAVYYCNADFGTGGRPYDYWGQGTQVTVSS
For B1, the binding result in experiment [1] was “no binding”.

B2: anti-Sap Nanobody684 (VHH)
VHH: B1 VHH with S21F, I31V, A40V, S41T, N56R, A74I, F99L, P105S
In the case of B2, the binding result in experiment [2] is on record as “binds”.

B3: anti-Sap Nanobody702 (VHH)
VHH: QVQLVESGGGLVQAGGSLRLSCAASGSIFRVNDMGWYRQAPGKQRELVAIIITGGSTNYADSVKGRFTISRDNAKNTVYLQMNSLRPEDTAVYYCNADFGTGPGRYDYWGQGTQVTVSS
Consider B3, for which the binding result in experiment [1] is reported as “no binding”.

B4: anti-Sap Nanobody683 (VHH)
VHH: B1 VHH with A33D, S41P, N56S, N76K, T77M, N96H, G100S, G103W, R104A
For B4, the binding result in experiment [1] is recorded as “no binding”.

B5: anti-Sap Nanobody703 (VHH)
VHH: QVQLVESGGGLVQPGGSLRLSCAASGFTFSSYAMSWVRQAPGKGLEWVSDINSGGGSTYYADSVKGRFTISRDNAKNTLYLQMNSLKPEDTAVYYCATGGKYGSTWYGQIEYDYWGQGTQVTVSS
On to B5, for which the binding result in experiment [3] is on record as “binds”.

B6: anti-Sap Nanobody692 (VHH)
VHH: QVQLVESGGGLVQAGGSLRLSCAASGSIFRINDMGWYRQAPGKQRELVAVITSGGSANYADSVKGRFSISRDNAKKAVYLRMNSLKPEDTAVYYCNADFGTLGRYDYWGQGTQVTVSS
As for B6, the binding result in experiment [1] is recorded as “no binding”.

B7: anti-Sap Nanobody688 (VHH)
VHH: QVQLVESGGGLVRAGGSLRLSCAASGSIFRINDMGWYRQAPGKQRELVAAITSGGSTNYADSVKGRFTISRDNAKNTVYLQMNSLKPEDTAVYYCNADFSTVRERRYDYWGQGTQVTVSS
In the case of B7, the binding result in experiment [1] was “no binding”.
